Data taken from patent publication US20190352359A1 (IMMATICS BIOTECHNOLOGIES, published 2019).

Molecular target: T1, HLA-A*24
T1 construct: Monomers captured on streptavidin plates; also called peptide-receptive MHC molecules; MHC complexes
Test: UV peptide-exchange ELISA (anti-b2m); yield grade ++ = >20%
From the text: Candidate peptides for T cell based therapies according to the present invention were further tested for their MHC binding capacity (affinity). The individual peptide-MHC complexes were produced by UV-ligand exchange, where a UV-sensitive peptide is cleaved upon UV-irradiation, and exchanged with the peptide of interest as analyzed. Only peptide candidates that can effectively bind and stabilize the peptide-receptive MHC molecules prevent dissociation of the MHC complexes. To determine the yield of the exchange reaction, an ELISA was performed based on the detection of the light chain (p2m) of stabilized MHC complexes. The assay was performed as generally described in Rodenko et al. (Rodenko et al., 2006)
96 well MAXISorp plates (NUNC) were coated over night with 2 ug/ml streptavidin in PBS at room temperature, washed 4× and blocked for 1 h at 37° C. in 2% BSA containing blocking buffer. Refolded HLA-A*02:01/MLA-001 monomers served as standards, covering the range of 15-500 ng/ml. Peptide-MHC monomers of the UV-exchange reaction were diluted 100-fold in blocking buffer. Samples were incubated for 1 h at 37° C., washed four times, incubated with 2 ug/ml HRP conjugated anti-β2m for 1h at 37° C., washed again and detected with TMB solution that is stopped with […]. Absorption was measured at 450 nm. Candidate peptides that show a high exchange yield (preferably higher than 50%, most preferred higher than 75%) are generally preferred for a generation and production of antibodies or fragments thereof, and/or T cell receptors or fragments thereof, as they show sufficient avidity to the MHC molecules and prevent dissociation of the MHC complexes.

Peptide exchange yield, 20 to 50%:
ALFPMGPLTF (also called ALFPMGPLTF) [LILRA4-003]
RQAYSVYAF (also called RQAYSVYAF) [SLC45A3-005]
WQNVTPLTF (also called WQNVTPLTF) [MMP16-002]
VTMYLPLLL (also called VTMYLPLLL) [GPR143-001]
LYQQSDTWSL (also called LYQQSDTWSL) [KIAA140-001]
YQGSLEVLF (also called YQGSLEVLF) [MROH2A-006]
VFQPNPLF (also called VFQPNPLF) [WISP3-002]
INGDLVFSF (also called INGDLVFSF) [CAPN6-002]
VHSYLGSPF (also called VHSYLGSPF) [MPL-001]
KYSVAFYSLD (also called KYSVAFYSLD) [LAMA1-008]
FSFSTSMNEF (also called FSFSTSMNEF) [CAPN6-001]
YTCSRAVSLF (also called YTCSRAVSLF) [OTOG-001]
LQPPWTTVF (also called LQPPWTTVF) [FCRL5-006]
FSSTLVSLF (also called FSSTLVSLF) [MAGEC1-003]
EFINGWYVL (also called EFINGWYVL) [MCOLN2-002]
YLGKNWSF (also called YLGKNWSF) [SPNS3-006]
KWFNVRMGFGF (also called KWFNVRMGFGF) [LIN-001]
YSLEHLTQF (also called YSLEHLTQF) [ZCCHC16-001]
KYKPVALQCIA (also called KYKPVALQCIA) [HMCN1-009]
KASKITFHW (also called KASKITFHW) [PTP-038]
VYPSESTVM (also called VYPSESTVM) [PTP-045]
RHYHSIEVF (also called RHYHSIEVF) [LOXL4-004]
SQHFNLATF (also called SQHFNLATF) [DNMT3B-003]
VYDTMIEKFA (also called VYDTMIEKFA) [PTP-044]
VGRSPVFLF (also called VGRSPVFLF) [COL11A1-006]
AQGSGTVTF (also called AQGSGTVTF) [FCRL3-004]
LFALPDFIF (also called LFALPDFIF) [CXCR3-002]
YIANLISCF (also called YIANLISCF) [GLYATL3-001]
FFLFIPFF (also called FFLFIPFF) [ADAM2-001]
HQYGGAYNRV (also called HQYGGAYNRV) [DLX5-002]
MFQFEHIKW (also called MFQFEHIKW) [FBXW10-001]
AYAIPSASLSW (also called AYAIPSASLSW) [HMCN1-005]
YAYATVLTF (also called YAYATVLTF) [ABCC4-002]
YLPNPSLNAF (also called YLPNPSLNAF) [CYP1A1-003]
VYVRPRVF (also called VYVRPRVF) [HMCN1-013]
TIYSLEMKMSF (also called TIYSLEMKMSF) [GLB1L3-001]
EVVHTVFLF (also called EVVHTVFLF) [HMCN1-007]
ELMAHPFLL (also called ELMAHPFLL) [CYP4Z-002]
LYMRFVNTHF (also called LYMRFVNTHF) [SPINK2-002]
KVFGSFLTL (also called KVFGSFLTL) [AGTR2-001]
KMLPEASLLI (also called KMLPEASLLI) [NLRP4-004]
ASYQQSTSSFF (also called ASYQQSTSSFF) [FAM82A1-001]
SLPGSFIYVF (also called SLPGSFIYVF) [HMCN1-012]
VYLRIGGF (also called VYLRIGGF) [WNT7A-002]
MGKGSISFLF (also called MGKGSISFLF) [PCSK1-001]
ILQAPLSVF (also called ILQAPLSVF) [FCRL5-005]
YTRLVLQF (also called YTRLVLQF) [GABRP-008]
RTLNEIYHW (also called RTLNEIYHW) [FOXP3-001]
AAFPGAFSF (also called AAFPGAFSF) [CRB2-002]
CAMPVAMEF (also called CAMPVAMEF) [KBTBD8-003]
TYESVVTGFF (also called TYESVVTGFF) [HAS3-004]
YLCMLYALF (also called YLCMLYALF) [KCNK18-001]
LKSPRLFTF (also called LKSPRLFTF) [BTBD16-001]
TYGEEMPEEI (also called TYGEEMPEEI) [DNAH17-004]
TQIITFESF (also called TQIITFESF) [CSF2-001]
RSWENIPVTF (also called RSWENIPVTF) [C18orf54-001]
KMFPKDFRF (also called KMFPKDFRF) [TTLL6-001]
RRVTWNVLF (also called RRVTWNVLF) [BTBD17-003]
YQRPDLLLF (also called YQRPDLLLF) [GEN-004]
SYFEYRRLL (also called SYFEYRRLL) [LAMC2-019]
MLYFAPDLIL (also called MLYFAPDLIL) [PGR-004]
